The record followed here is patent EP0959894B1.

Read-outs that look alike come from different tables or passages of the source.

For assay [1], the target named is urokinase-type plasminogen activator (u-PA) (UniProt P00749). The experiment in a line: ratio of second order rate constants for inhibition.
Assay [2] addresses tissue plasminogen activator (t-PA) (UniProt P00750). The experiment in a line: ratio of the rate constants toward t-PA and toward u-PA.
The target is the same in assay [3]. The assay is described as follows: ratio of selectivities from second order rate constants for inhibition.
The target is the same in assay [4]. The experiment in a line: inhibition kinetics from residual enzyme activity (chromogenic assay), pseudo-first or second order conditions.
The target of assay [5] is urokinase-type plasminogen activator (u-PA) (UniProt P00749). The assay is described as above.
For assay [6] the target is unchanged. The experiment in a line: ratio of the rate constants toward u-PA and toward t-PA.
The target is the same in assay [7]. The assay is described as follows: ratio of selectivities from second order rate constants for inhibition.
In assay [8] the target is tissue plasminogen activator (t-PA) (UniProt P00750). The experiment in a line: inhibition kinetics from residual enzyme activity (chromogenic assay), pseudo-first or second order conditions. The source holds these as a separate data set.
tissue plasminogen activator (t-PA), sequence (P00750 36-562 limits assumed): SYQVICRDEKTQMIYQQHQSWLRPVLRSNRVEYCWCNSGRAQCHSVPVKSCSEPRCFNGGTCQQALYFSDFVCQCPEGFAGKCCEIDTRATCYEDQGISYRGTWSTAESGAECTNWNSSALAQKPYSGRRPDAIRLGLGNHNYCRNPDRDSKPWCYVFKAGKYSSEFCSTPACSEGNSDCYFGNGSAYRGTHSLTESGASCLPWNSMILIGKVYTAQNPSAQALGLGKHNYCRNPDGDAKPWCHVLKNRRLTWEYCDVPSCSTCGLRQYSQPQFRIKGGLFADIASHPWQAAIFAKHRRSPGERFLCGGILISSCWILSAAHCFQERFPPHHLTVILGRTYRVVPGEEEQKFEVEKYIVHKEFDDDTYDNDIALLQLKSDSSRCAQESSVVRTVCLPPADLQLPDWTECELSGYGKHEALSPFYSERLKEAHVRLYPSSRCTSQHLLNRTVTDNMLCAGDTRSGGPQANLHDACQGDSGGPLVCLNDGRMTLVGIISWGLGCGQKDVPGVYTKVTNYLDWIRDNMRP
Assay [9] deals with urokinase-type plasminogen activator (u-PA) (UniProt P00749). The assay is described as above. This is another data set of the same source.
For assay [10] the target is unchanged. The assay is described as follows: ratio of the second order rate constants for inhibition.

For PAI-1/P3R (from UniProt P05121 24-402), the fold reduction of activity against wild type PAI-1 in [1] was 190 fold. For the same substance, the t-PA/u-PA Selectivity in assay [2] worked out at 14. For the same substance, in assay [3], the fold reversal in specificity toward t-PA against wild type PAI-1 worked out at 170 fold. In addition, the second order rate constant for inhibition in [4] was 1.4e+06 M⁻¹ s⁻¹; in assay [5], 100000 M⁻¹ s⁻¹.
Take PAI-1/P4Q (from UniProt P05121 24-402): the t-PA/u-PA Selectivity in assay [2] was determined as 0.08. The second order rate constant for inhibition in assay [4] stood at 1.6e+06 M⁻¹ s⁻¹; in [5] it was 1.9e+07 M⁻¹ s⁻¹.
Take “PAI-1/P4Q,P3R (from UniProt P05121 24-402)”: the t-PA/u-PA Selectivity in assay [2] is 48. Also, in assay [3], the fold gain of t-PA selectivity against the P3 arginine variant of PAI-1 is 3.5 fold and the fold gain of t-PA/u-PA selectivity against wild-type PAI-1 stood at 600 fold. This substance registered a second order rate constant for inhibition in assay [4] of 1.4e+06 M⁻¹ s⁻¹. In assay [5], this substance registered a second order rate constant for inhibition of 29000 M⁻¹ s⁻¹.
On to PAI-1/UK1 (from UniProt P05121 24-402), for which the t-PA/u-PA Selectivity (as headed; the value is the u-PA/t-PA ratio) in assay [6] was 69. The fold gain of u-PA/t-PA selectivity against wild type PAI-1 in assay [7] came out at 7 fold. Besides, the second order rate constant for inhibition in assay [8] is 90000 M⁻¹ s⁻¹; in assay [9], 6.2e+06 M⁻¹ s⁻¹.
For “Wild type PAI-1 (recombinant human plasminogen activator inhibitor type 1) (from UniProt P05121 24-402)”, the t-PA/u-PA Selectivity in assay [2] was determined as 0.08. Also, the t-PA/u-PA Selectivity (as headed; the value is the u-PA/t-PA ratio) in assay [6] turned out to be 11. The fold specificity toward u-PA over t-PA in assay [10] worked out at 11.9 fold. For the same substance, the second order rate constant for inhibition was determined as 1.6e+06 M⁻¹ s⁻¹ in assay [4], 1.8e+06 M⁻¹ s⁻¹ in assay [8] and 1.9e+07 M⁻¹ s⁻¹ in assay [9].
